Laboratory results: publication doi:10.1101/188136 (bioRxiv, 2017)

Molecular target: the molecule itself
Assay: crystal structure

B1: BrlR (transcriptional regulator BrlR from Pseudomonas aeruginosa) (natural protein, UniProt Q9HUT5 1-270, looked up)
chain: MLTIGQLARIFEISTKTLRHYDAIGLFVPARTGSDNGYRYYQPEQIEQLSRILALRRLDVPLEAIDRLKRDGALDDPQRLRHFLQRHQHTLREEISARQRLLAELDRTLATLAHWRIRNMHARIVERPAFSVVGMEYFGSAPGDTIGQLWERFIPREHEIAGKHDPEVSYGICAQQPNGEFHYVAGFEVQEGWPVPEGMVRFQVPAQKYAVFTHKGTAPQIAESFQAIYSHLLAERGLEPKAGVDFEYYDQRFRGPLDPNSQVDLYIPIY
stoichiometry N: 4
